Experimental findings from article PMC12428753, “Heparanase-Neutralizing Monoclonal Antibody (mAb A54) Attenuates Tumor Growth and Metastasis” (Cells, 2025) are described below.

The Kd is a measure of binding affinity in units of concentration. Low values mean a tighter complex, high ones a looser complex. By IC50 is commonly meant the point on the concentration scale where inhibition reaches its midpoint. A lower IC50 goes with inhibition by little substance.

Assay [1] concerns the target T1, mature heparanase (active heterodimer of 8 kDa and 50 kDa subunits) (human).
T1 sequence (Q9Y251 whole entry, looked up): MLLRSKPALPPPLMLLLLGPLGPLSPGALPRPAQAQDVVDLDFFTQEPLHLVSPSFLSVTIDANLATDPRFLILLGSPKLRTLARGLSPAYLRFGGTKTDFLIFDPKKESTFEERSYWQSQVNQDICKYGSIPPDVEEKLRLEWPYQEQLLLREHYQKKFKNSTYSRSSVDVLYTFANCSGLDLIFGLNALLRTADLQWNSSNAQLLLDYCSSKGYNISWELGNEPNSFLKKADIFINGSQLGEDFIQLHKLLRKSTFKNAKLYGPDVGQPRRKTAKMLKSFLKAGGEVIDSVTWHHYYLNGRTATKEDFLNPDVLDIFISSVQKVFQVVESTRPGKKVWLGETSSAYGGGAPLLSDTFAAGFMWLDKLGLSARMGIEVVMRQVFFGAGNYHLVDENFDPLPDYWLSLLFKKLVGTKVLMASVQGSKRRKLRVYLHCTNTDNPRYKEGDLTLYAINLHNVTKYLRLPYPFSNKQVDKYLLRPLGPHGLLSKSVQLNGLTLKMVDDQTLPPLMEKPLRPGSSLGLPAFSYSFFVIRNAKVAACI

Assay [2] has as its target T2, latent 65 kDa heparanase (Homo sapiens, UniProt Q9Y251).
T2 construct: heparanase, human, unprocessed 65 kDa latent proenzyme on one chain ('full-length latent heparanase'); also called Hpa65; pro-heparanase; source: recombinant
As to the kind of experiment: SPR; Biacore analysis; orientation and conditions not told. The note with it: both partners purified.

The target in assay [3] is T2, latent 65 kDa heparanase. As to the kind of experiment: ELISA; 96-well microtiter plate coated with latent 65 kDa heparanase (Hpa65); purified mAb A54 or control mouse IgG added at the indicated concentrations. The note with it: both partners purified. (In general: ELISA stands for enzyme-linked immunosorbent assay.)
The target of assay [4] is T3, heparanase protein (form not stated) (human) (UniProt Q9Y251).
T3 sequence: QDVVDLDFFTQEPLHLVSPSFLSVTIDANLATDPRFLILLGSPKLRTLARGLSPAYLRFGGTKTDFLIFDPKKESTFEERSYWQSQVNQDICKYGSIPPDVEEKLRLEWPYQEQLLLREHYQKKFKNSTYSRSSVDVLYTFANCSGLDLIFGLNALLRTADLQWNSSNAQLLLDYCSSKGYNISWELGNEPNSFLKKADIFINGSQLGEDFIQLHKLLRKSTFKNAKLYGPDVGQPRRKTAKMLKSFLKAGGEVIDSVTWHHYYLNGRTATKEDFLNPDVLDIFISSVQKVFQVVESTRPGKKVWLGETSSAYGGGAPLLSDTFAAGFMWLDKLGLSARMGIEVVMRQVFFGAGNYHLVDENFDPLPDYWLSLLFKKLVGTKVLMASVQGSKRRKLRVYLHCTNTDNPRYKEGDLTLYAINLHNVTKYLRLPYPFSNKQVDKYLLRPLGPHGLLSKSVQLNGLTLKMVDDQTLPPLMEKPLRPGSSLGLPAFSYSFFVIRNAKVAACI
As to the kind of experiment: not stated; binding affinity of the humanized vs. the mouse A54 antibody for the heparanase protein; service by GenScript.

B1: A54 anti-heparanase monoclonal antibody (purified from hybridoma A54) (antibody, V domains shown)
VH: QVQLQQSGAELAKPGASVRMSCKASGYTFTNYWMHWVKQRPGQGLEWIGYINPTTGYTEYNQKFKDKATLTADKSSSTAYMQLSSLTSEDSAVYYCARGGAGYDYDEDYAMDYWGQGTSVTVSS
VL: DIVLTQSPASLAVSLGQRATISCRASESVEYFGTSYMNWYQQKPGQPPKLLIYLASILESGIPARFSGSGSGTDFTLNIHPVEEEDAATYYCQQSNEDPYTFGGGTKLEIK
notes: VH of A54; the Fab heavy chain is in the deposited structure PDB 9S8W; mouse IgG1 heavy chain constant region (subclass found with an isotyping kit); CH1 is also in PDB 9S8W; VL of A54; the Fab light chain is in the deposited structure PDB 9S8W; mouse kappa light chain constant region (IgG1-Kappa is stated for the recombinant version); also in PDB 9S8W; Mouse IgG1; whole IgG; Only the Fab part is …
As to B1, the inhibition of heparanase enzymatic activity by hybridoma A54 supernatant (release of sulfate-labeled HS degradation fragments from 35S-labeled ECM) in assay [1] came out at 80%. The same molecule gave a Kd in the assay with latent 65 kDa heparanase [2] of 3.18 nM. For the same molecule, the IC50 with latent 65 kDa heparanase [3] was found to be 0.2 nM.

B2: recombinant A54 mAb (antibody, V domains shown)
VH: B1 VH
VL: B1 VL
In turn, B2 gave a dissociation constant (Kd) in assay [4] of 1 nM.
